The EC50 is the concentration at which the effect is half-maximal.

T1: bacterial-expressed 3'Flag-Acrp30 (full length) (murine, UniProt Q60994 18-247)
T1 construct: The bacterial construct is not described; also called Full Length Acrp; bacterial expressed Flag-tagged full-length
T1 sequence: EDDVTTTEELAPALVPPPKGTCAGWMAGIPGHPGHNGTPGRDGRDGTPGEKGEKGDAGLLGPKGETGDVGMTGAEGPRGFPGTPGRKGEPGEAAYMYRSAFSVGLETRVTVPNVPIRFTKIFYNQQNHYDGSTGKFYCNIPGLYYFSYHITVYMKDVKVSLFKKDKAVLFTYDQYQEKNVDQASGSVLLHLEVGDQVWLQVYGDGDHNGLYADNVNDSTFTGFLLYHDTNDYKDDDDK

B1: murine T-cadherin (full-length), over-expressed on cells (receptor)
chain: SIVVSPILIPENQRQPFPRDVGKVVDSDRPEGSKFRLTGKGVDQDPKGTFRINENTGSVSVTRTLDRETIATYQLYVETTDASGKTLEGPVPLEVIVIDQNDNRPIFREGPYIGHVMEGSPTGTTVMRMTAFDADDPATDNALWRYNIRQQTPDKPSPNMFYIDPEKGDIVTVVSPALLDRETLENPKYELIIEAQDMAGLDVGLTGTATATIVIDDKNDHSPKFTKKEFQARVEEGAVGVIVNLTVEDKDDPTTGAWRAAYTIINGNPGQSFEIHTNPQTNEGMLSVVKPLDYEISAFHTLLIKVENEDPLVPDVSYGPSSTATVHITVLDVNEGPVFYPDPMMVTKQENISVGSVLLTVNATDPDSLQHQTIRYSIYKDPAGWLSINPINGTVDTTAVLDRESPFVHNSVYTALFLAIDSGNPPATGTGTLLITLEDINDNAPVIYPTVAEVCDDARNLSVVILGASDKDLHPNTDPFKFEIHKQTVPDKVWKISKINNTHALVSLLQNLNKANYNLPIMVTDSGKPPMTNITDLKVQVCSCKNSKVDCNGAG
modifications: GPI anchor at the C-terminus (said of T-cadherin in general in the background)
notes: Expressed from the full-length cDNA in CHO, CHO-ER and Ba/F3 cells; also called pCDNA-Tcad; pBI-GFP-Tcad
B2: HEK produced hexameric and high-molecular weight 5'FlagAcrp30 (ligand)
chain: DYKDDDDKEDDVTTTEELAPALVPPPKGTCAGWMAGIPGHPGHNGTPGRDGRDGTPGEKGEKGDAGLLGPKGETGDVGMTGAEGPRGFPGTPGRKGEPGEAAYMYRSAFSVGLETRVTVPNVPIRFTKIFYNQQNHYDGSTGKFYCNIPGLYYFSYHITVYMKDVKVSLFKKDKAVLFTYDQYQEKNVDQASGSVLLHLEVGDQVWLQVYGDGDHNGLYADNVNDSTFTGFLLYHDTN
notes: Pool of hexamers (6 chains) and HMW species (more than 6 chains), about 50% pure, made by ammonium sulfate precipitation and anion exchange; also called HEX & HMW; hexameric and HMW 5'Flag-Acrp30

Assay [1] has as its target T1, bacterial-expressed 3'Flag-Acrp30 (full …). The assay is described as follows: cell ELISA on CHO-T-cadherin cells, anti-Flag M2 detection. How it is done:
(§1) CHO-ER cell lines infected with the bicistronic retroviral construct pBI-GFP-Tcad (referred to as CHO-T-cadherin) and control cells infected with pBI-GFP (referred to as CHO-GFP) were each grown in 96 well plates. One day after plating (1.5×10⁴/well), the cells were incubated in serum-free media for one hour, placed at 4° C. for thirty minutes, and blocked in PBS++ containing 4% dried milk for thirty minutes. Bacterial expressed Flag-tagged globular-Acrp30 bacterial expressed Flag-tagged full-length, or purified trimeric or hexameric and HMW 5′Flag-Acrp30 produced in HEK cells were incubated with the cells for one hour in blocking buffer at the indicated concentrations. The HEK expressed polypeptides were produced and purified by ammonium sulfate precipitation and anion-exchange chromatography. Pools containing the trimeric or a combination of hexamer and HMW 5′Flag-Acrp30 were identified by native gel electrophoresis and immunoblotting with a Flag antibody. The purity of these preparations was judged to be approximately 50% by Coomassie PAGE analysis. Protein concentration was determined by BCA assay (Pierce). The concentration of purified bacterial expressed proteins was determined by the absorbance at 280 nm and the calculated extinction coefficient derived from the primary amino acid sequence (Protean; DNAStar). […] The absorbance at 450 nm was measured with a plate reader.
(In general: An ELISA detects its analyte on a solid surface through an enzyme-linked reagent.)

Assay [2] has as its target B1. The assay is described as follows: cell ELISA on CHO-T-cadherin cells, anti-Flag M2 detection; concentration as trimer equivalents. As to the method: as §1

B1: the binding result in assay [1] is on record as “no binding”. For B2, the concentration for a half-maximal effect (EC50) in assay [2] was 25 to 50 nM.

The record behind these values is patent US20070212686A1 (WHITEHEAD INSTITUTE FOR BIOMEDICAL RESEARCH, published 2007).
